Blank lines part the entries; values can stand above or below the molecule they belong to.
B1: Speckle-type POZ protein (SPOP) wild type, residues 28-359 (domain or fragment)
chain: KVVKFSYMWTINNFSFCREEMGEVIKSSTFSSGANDKLKWCLRVNPKGLDEESKDYLSLYLLLVSCPKSEVRAKFKFSILNAKGEETKAMESQRAYRFVQGKDWGFKKFIRRDFLLDEANGLLPDDKLTLFCEVSVVQDSVNISGQNTMNMVKVPECRLADELGGLWENSRFTDCCLCVAGQEFQAHKAILAARSPVFSAMFEHEMEESKKNRVEINDVEPEVFKEMMCFIYTGKAPNLDKMADDLLAAADKYALERLKVMCEDALCSNLSVENAAEILILADLHSADQLKTQAVDFINYHASDVLETSGWKSMVVSHPHLVAEAYRSLASA
B2: SPOP R354H, residues 28-359 (domain or fragment)
chain: KVVKFSYMWTINNFSFCREEMGEVIKSSTFSSGANDKLKWCLRVNPKGLDEESKDYLSLYLLLVSCPKSEVRAKFKFSILNAKGEETKAMESQRAYRFVQGKDWGFKKFIRRDFLLDEANGLLPDDKLTLFCEVSVVQDSVNISGQNTMNMVKVPECRLADELGGLWENSRFTDCCLCVAGQEFQAHKAILAARSPVFSAMFEHEMEESKKNRVEINDVEPEVFKEMMCFIYTGKAPNLDKMADDLLAAADKYALERLKVMCEDALCSNLSVENAAEILILADLHSADQLKTQAVDFINYHASDVLETSGWKSMVVSHPHLVAEAYHSLASA

Columns and labels:
[1] = molecular target: fluorescently labeled peptide derived from a SPOP-binding motif from the substrate Puckered; experiment: fluorescence polarisation
[2] = molecular target: the molecule itself; experiment: CG-MALS
[3] = molecular target: B1; experiment: fluorescence polarisation
[4] = molecular target: SPOP R221C, residues 28-359 (human, UniProt O43791 28-359, R221C); experiment: fluorescence polarisation
[5] = molecular target: B2; experiment: fluorescence polarisation

Molecule: SPOP mutBACK (Y353E), residues 28-359 (from UniProt O43791 28-359) (domain or fragment)
Kd [1]: 4.3 µM

Molecule: SPOP R221C, residues 28-359 (from UniProt O43791 28-359) (domain or fragment)
Kd [1]: 5.9 µM

Molecule: SPOP R354H, residues 28-359 (from UniProt O43791 28-359) (domain or fragment)
Kd [1]: 5.1 µM

Molecule: B1
Kd [2]: 2.7 µM

Molecule: B2
Kd [2]: 26.9 µM

The remaining lines, values ahead:

Kd [1]: 9.8 µM
Molecule: Speckle-type POZ protein (SPOP) wild type, residues 28-359 (from UniProt O43791 28-359) (domain or fragment)

Kd [3]: 1.2 µM
Kd [4]: 3.2 µM
Kd [5]: 3 µM
B3: C-terminal intrinsically disordered region (IDR) of DAXX (cDAXX), fluorescently labeled (domain or fragment)
chain: SPMSSLQISNEKNLEPGKQISRSSGEQQNKGRIVSPSLLSEEPLAPSSIDAESNGEQPEELTLEEESPVSQLFELEIEALPLDTPSSVETDISSSRKQSEEPFTTVLENGAGMVSSTSFNGGVSPHNWGDSGPPCKKSRKEKKQTGSGPLGNSYVERQRSVHEKNGKKICTLPSPPSPLASLAPVADSSTRVDSPSHGLVTSSLCIPSPARLSQTPHSQPPRPGTCKTSVATQCDPEEIIVLSDSD
